In patent US20250026834A1 (ZOETIS SERVICES, published 2025):

Molecular target: NGF (target protein of the anti-NGF antibodies mAb2 and mAb3)
Test: cell-based or functional assay

Chain of NGF (target protein of the anti-NGF antibodies mAb2 and mAb3) (P01138 122-241): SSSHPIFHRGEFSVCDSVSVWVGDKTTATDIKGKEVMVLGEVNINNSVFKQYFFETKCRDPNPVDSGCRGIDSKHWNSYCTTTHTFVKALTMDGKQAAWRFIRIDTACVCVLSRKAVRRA

IC50 (cell based potency assay): 0.036 nM
B1: mAb3 (felinized anti-NGF, ZTS-768) IgG1a WT (antibody, V domains shown)
VH: DVQLVESGGDLVKPGGSLRLTCVASGFTYSNYWMHWVRQAPGKGLQWVARIDPYGGGTKHNEKFKRRFTISRDNAKNTLYLQMNSLKTEDTATYYCVRSGYDYYFDVWGQGTLVTVSS
VL: EIQMTQSPSSLSASPGDRVTITCRASENIYSFLAWYQQKPGKVPKLLIYNANTLAEGVPSRFSGSGSGTDFTLTISSLEPEDAATYYCQHHFGTPFTFGSGTKLEIKR
